Data from patent US20220107327A1, “MULTI-TARGET CROSSLINKERS AND USES THEREOF” (The Regents of the University of California, published 2022).

B1: 19(3x) (ssDNA)
DNA: TGTAGCTGTTGATCTAAGTTGTAGCTGTTGATCTAAGTTGTAGCTGTTGATCTAAGT
B2: ATC(4x) (ssDNA)
DNA: AATTCGCCAATGACAAGACGCTGGGCGGGGCCGGATCCATCATCATCATCTAGAAGCT
B3: E. coli wild type glutathione S-transferase (GST) (enzyme)
chain: MKLFYKPGACSLASHITLRESGKDFTLVSVDLMKKRLENGDDYFAVNPKGQVPALLLDDGTLLTEGVAIMQYLADSVPDRQLLAPVNSISRYKTIEWLNYIATELHKGFTPLFRPDTPEEYKPTVRAQLEKKLQYVNEALKDEHWICGQRFTIADAYLFTVLRWAYAVKLNLEGLEHIAAFMQRMAERPEVQDALSAEGLKHHHHHH
notes: Written as the single subunit

How the values were obtained:
[1] = biological target: SSB (single-stranded DNA binding protein) (UniProt P0AGE0 P0AGE0:2-178); experiment: covalent crosslinking with NHQM + 365 nm UV, denaturing TBE-urea gel shift; 1.5 uM DNA, 0.2 mg/mL SSB, 37 C 30 min; no crosslink with BS3 or UV alone; conditions: chain copies: 4
[2] = biological target: the molecule itself; experiment: NHSF or BS2G cross-linking of purified GST; SDS-PAGE and Western blot under reducing and denatured conditions (homodimer)

Chain of SSB (single-stranded DNA binding protein) (P0AGE0 2-178, one chain of several): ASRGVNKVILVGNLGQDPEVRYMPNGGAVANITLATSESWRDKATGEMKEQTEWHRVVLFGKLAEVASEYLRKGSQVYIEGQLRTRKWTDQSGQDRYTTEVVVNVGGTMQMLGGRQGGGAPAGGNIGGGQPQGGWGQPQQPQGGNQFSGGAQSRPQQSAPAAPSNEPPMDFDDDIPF

Row | Binder | binding result [1] | binding result [2]
1 | B1 | binds | 
2 | B2 | binds | 
3 | B3 |  | binds
